From paper PMC4409382, “Structural Analysis of the 14-3-3ζ/Chibby Interaction Involved in Wnt/β-Catenin Signaling” (PLoS ONE, 2015)
Substitutions are numbered along the chain they refer to. Names and notes keep the numbering of the source. Square brackets hold non-standard residues; d marks the D form. Ends that are not written are not given here. pS = N[C@@H](COP(=O)(O)O)C(=O)O

T1: 14-3-3ζ (human, UniProt P63104 1-245)
T1 construct: N-terminal glycine retained after TEV cleavage of the His tag; 14-3-3 zeta, human, ORF purchased from GeneCopoeia, full-length construct; Dimer (~56 kDa); the stoichiometry n counts on the 14-3-3 monomer; also called full-length 14-3-3ζ; source: E. coli BL21 (DE3) pLysS, purified (Ni Sepharose, TEV cleavage, second Ni Sepharose pass); not shown: His tag, N-terminal, cleaved
T1 sequence: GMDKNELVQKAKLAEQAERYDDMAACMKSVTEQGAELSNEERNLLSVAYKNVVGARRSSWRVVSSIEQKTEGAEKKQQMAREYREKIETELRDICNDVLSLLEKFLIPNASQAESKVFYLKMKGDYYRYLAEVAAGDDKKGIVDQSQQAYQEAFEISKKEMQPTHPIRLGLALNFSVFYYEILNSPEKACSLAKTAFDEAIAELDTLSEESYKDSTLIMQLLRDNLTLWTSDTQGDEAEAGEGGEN

T2: 14-3-3ζΔC12 (human, UniProt P63104 1-233)
T2 construct: N-terminal glycine retained after TEV cleavage of the His tag; 14-3-3ζ, human, full-length construct with the 12 C-terminal residues deleted; Unlabelled for ITC; 15N, 13C, 2H labelled for the NMR titrations; also called 14-3-3ζ with the C-terminal 12 residues removed; source: E. coli BL21 (DE3) pLysS, purified (Ni Sepharose, TEV cleavage, second Ni Sepharose pass); not shown: His tag, N-terminal, …
T2 sequence: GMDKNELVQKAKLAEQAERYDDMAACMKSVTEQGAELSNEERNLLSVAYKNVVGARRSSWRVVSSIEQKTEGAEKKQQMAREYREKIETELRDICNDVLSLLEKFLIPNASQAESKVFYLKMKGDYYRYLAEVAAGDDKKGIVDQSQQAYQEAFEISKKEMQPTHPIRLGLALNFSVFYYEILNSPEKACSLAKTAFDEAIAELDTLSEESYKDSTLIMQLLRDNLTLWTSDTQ

T3: 14-3-3ζ K49A (human, UniProt P63104 1-245, K49A)
T3 construct: N-terminal glycine retained after TEV cleavage of the His tag; 14-3-3ζ, human, with the K49A mutation introduced into 14-3-3ζ; source: purified by Ni Sepharose with TEV cleavage as all 14-3-3ζ constructs; not shown: His tag, N-terminal, cleaved
T3 sequence: T1 sequence with K50A

T4: 14-3-3ζ K49A (human, UniProt P63104 1-245, K49A)
T4 construct: N-terminal glycine retained after TEV cleavage of the His tag; 14-3-3 zeta, human, with the K49A mutation introduced into 14-3-3ζ (the full-length construct); they say that all 14-3-3ζ constructs were purified in the same way; source: E. coli, purified (Ni Sepharose, TEV cleavage, second Ni Sepharose pass); not shown: His tag, N-terminal, cleaved
T4 sequence: T1 sequence with K50A

T5: 14-3-3ζΔC12 (human, UniProt P63104 1-233)
T5 construct: N-terminal glycine retained after TEV cleavage of the His tag; 14-3-3 zeta, human, full-length 14-3-3ζ with the 12 C-terminal residues deleted; source: E. coli BL21 (DE3) pLysS, purified (Ni Sepharose, TEV cleavage, second Ni Sepharose pass); not shown: His tag, N-terminal, cleaved
T5 sequence: T2 sequence

T6: Chibby 7-mer (Homo sapiens, UniProt Q9Y3M2)
T6 chain: Ac-RKSA[pS]LS-NH2

T7: Chibby 11-mer (Homo sapiens, UniProt Q9Y3M2)
T7 chain: H-KTPPRKSA[pS]LS-NH2

T8: Chibby 13-mer (Homo sapiens, UniProt Q9Y3M2)
T8 chain: KTPPRKSA[pS]LSNL

T9: Chibby 18-mer (Homo sapiens, UniProt Q9Y3M2)
T9 chain: KTPPRKSA[pS]LSNLHSLDR

T10: Chibby 13-mer S22P (Homo sapiens, UniProt Q9Y3M2)
T10 chain: KTPPRKSASLPNL

T11: Chibby 18-mer L24A (Homo sapiens, UniProt Q9Y3M2)
T11 chain: KTPPRKSASLSNAHSLDR

T12: Chibby 7-mer S22P (Homo sapiens, UniProt Q9Y3M2)
T12 chain: RKSASLP

B1: pCby 7-mer (peptide)
peptide: Ac-RKSA[pS]LS-NH2
SMILES: CC(=O)N[C@@H](CCCNC(=N)N)C(=O)N[C@@H](CCCCN)C(=O)N[C@@H](CO)C(=O)N[C@@H](C)C(=O)N[C@@H](COP(=O)(O)O)C(=O)N[C@@H](CC(C)C)C(=O)N[C@@H](CO)C(N)=O
notes: Chibby (Cby), human, residues 16-22; also called 16RKSA(pS)LS22; source: synthetic peptide, bought: TUFTS University Core Facility
B2: pCby S22P 7-mer (peptide)
peptide: Ac-RKSA[pS]LP-NH2
SMILES: CC(=O)N[C@@H](CCCNC(=N)N)C(=O)N[C@@H](CCCCN)C(=O)N[C@@H](CO)C(=O)N[C@@H](C)C(=O)N[C@@H](COP(=O)(O)O)C(=O)N[C@@H](CC(C)C)C(=O)N1CCC[C@H]1C(N)=O
notes: Chibby (Cby), human, residues 16-22 with S22P; also called Cby 7-mer S22P; 16RKSA(pS)LP22; source: synthetic peptide, bought: TUFTS University Core Facility
B3: 14-3-3ζ (human, full-length) (natural protein)
chain: T1 sequence
notes: N-terminal glycine retained after TEV cleavage of the His tag; 14-3-3ζ, human, ORF bought from GeneCopoeia, in Gateway pDEST17; full-length; Dimer in the crystal; the ITC stoichiometry counts on the 14-3-3 monomer; also called WT 14-3-3ζ; source: E. coli BL21 (DE3) pLysS, purified (Ni Sepharose, TEV cleavage, second Ni Sepharose pass); not shown: His tag, N-terminal, cleaved
B4: pCby 18-mer (peptide)
peptide: KTPPRKSA[pS]LSNLHSLDR
notes: Chibby (Cby), human, residues 12-29; free NH2 and COOH ends; also called Cby 18-mer WT; WT Cby 18-mer; source: synthetic peptide, bought: GenScript USA Inc
B5: pCby S22P 18-mer (peptide)
peptide: KTPPRKSA[pS]LPNLHSLDR
notes: Chibby (Cby), human, residues 12-29 with S22P; free NH2 and COOH ends; also called Cby 18-mer S22P; source: synthetic peptide, bought: TUFTS University Core Facility
B6: pCby 18-mer (peptide)
peptide: KTPPRKSA[pS]LSNLHSLDR
notes: Chibby (Cby), human, residues 12-29; also called Cby 18-mer WT; source: synthetic peptide, bought: GenScript USA Inc
B7: Cby 18-mer L24A (peptide)
peptide: KTPPRKSA[pS]LSNAHSLDR
notes: Chibby (Cby), human, residues 12-29 with L24A; also called Cby L24A 18-mer; source: synthetic peptide, bought (GenScript USA Inc. or TUFTS University Core Facility)
B8: pCby S22P 18-mer (peptide)
peptide: KTPPRKSA[pS]LPNLHSLDR
notes: Chibby (Cby), human, residues 12-29 with S22P; also called Cby 18-mer S22P; source: synthetic peptide, bought: TUFTS University Core Facility
B9: 14-3-3ζ (protein)
chain: MDKNELVQKAKLAEQAERYDDMAACMKSVTEQGAELSNEERNLLSVAYKNVVGARRSSWRVVSSIEQKTEGAEKKQQMAREYREKIETELRDICNDVLSLLEKFLIPNASQAESKVFYLKMKGDYYRYLAEVAAGDDKKGIVDQSQQAYQEAFEISKKEMQPTHPIRLGLALNFSVFYYEILNSPEKACSLAKTAFDEAIAELDTLSEESYKDSTLIMQLLRDNLTLWTSDTQGDEAEAGEGGEN
B10: pCby S22P 13-mer (peptide)
peptide: KTPPRKSA[pS]LPNL
notes: Chibby (Cby), human, residues 12-24 with S22P; also called Cby 13-mer S22P; source: synthetic peptide, bought: TUFTS University Core Facility
B11: pCby 13-mer (peptide)
peptide: KTPPRKSA[pS]LSNL
notes: Chibby (Cby), human, residues 12-24; source: synthetic peptide, bought: GenScript USA Inc
B12: pCby 13-mer (peptide)
peptide: KTPPRKSA[pS]LSNL
notes: Chibby (Cby), human, residues 12-24; free NH2 and COOH ends; also called phosphorylated Cby peptide; source: synthetic peptide, bought: GenScript USA Inc
B13: pCby 11-mer (peptide)
peptide: KTPPRKSA[pS]LS-NH2
modifications: N-terminus assumed
SMILES: CC(C)C[C@H](NC(=O)[C@H](COP(=O)(O)O)NC(=O)[C@H](C)NC(=O)[C@H](CO)NC(=O)[C@H](CCCCN)NC(=O)[C@H](CCCNC(=N)N)NC(=O)[C@@H]1CCCN1C(=O)[C@@H]1CCCN1C(=O)[C@@H](NC(=O)[C@@H](N)CCCCN)[C@@H](C)O)C(=O)N[C@@H](CO)C(N)=O
notes: Chibby (Cby), human, residues 12-22; source: synthetic peptide, bought: TUFTS University Core Facility

Tests used:
14-3-3ζ = target: T1, 14-3-3ζ; assay: ITC; duplicate set of titrations; 5 uL aliquots of ~1-2 mM peptide titrated into the 1.4 mL cell with ~100-200 uM 14-3-3ζ; 25 °C; 50 mM sodium phosphate, 100 mM NaCl, 1 mM DTT, pH 6.8; one-site model; n per 14-3-3 monomer; conditions: both partners purified
[1] = target: the molecule itself; assay: crystal structure; 14-3-3ζ (10 mg/mL) co-crystallised with the phosphorylated Cby 18-mer (protein:peptide 1:4), 20 mM Tris pH 7.5, 100 mM NaCl; reservoir 200 mM NH4HCO2, 16-20% PEG 3350; 4°C; 2.41 Å
14-3-3ζΔC12 [2] = target: T2, 14-3-3ζΔC12; assay: ITC; VP-ITC, 25°C; ~1-2 mM peptide titrated in 5 uL aliquots into ~100-200 uM 14-3-3ζ in the cell; 50 mM sodium phosphate, 100 mM NaCl, 1 mM DTT, pH 6.8; one-site model; in duplicate; conditions: both partners purified
[3] = target: B3; assay: as above; conditions: both partners purified
14-3-3ζ K49A [4] = target: T3, 14-3-3ζ K49A; assay: as above; conditions: both partners purified
14-3-3ζ K49A [5] = target: T4, 14-3-3ζ K49A; assay: ITC; duplicate set of titrations; 5 uL aliquots of ~1-2 mM peptide titrated into the 1.4 mL cell with ~100-200 uM 14-3-3ζ; 25 °C; 50 mM sodium phosphate, 100 mM NaCl, 1 mM DTT, pH 6.8; one-site model; n per 14-3-3 monomer; conditions: both partners purified
14-3-3ζΔC12 [6] = target: T5, 14-3-3ζΔC12; assay: as above; conditions: both partners purified
Chibby 7-mer = target: T6, Chibby 7-mer; assay: ITC
Chibby 11-mer = target: T7, Chibby 11-mer; assay: ITC
Chibby 13-mer = target: T8, Chibby 13-mer; assay: ITC
Chibby 18-mer = target: T9, Chibby 18-mer; assay: ITC
Chibby 13-mer S22P = target: T10, Chibby 13-mer S22P; assay: ITC
Chibby 18-mer L24A = target: T11, Chibby 18-mer L24A; assay: ITC
Chibby 7-mer S22P = target: T12, Chibby 7-mer S22P; assay: ITC

## B1
14-3-3ζ
  Kd: 47.6 µM
  stoichiometry N: 0.94

## B2
14-3-3ζ
  Kd: 3.2 µM
  stoichiometry N: 1.02

## B3
[1]
  binding result: binds

## B4
14-3-3ζΔC12 [2]
  Kd: 6.8 µM
  dH: -3.35 ± 0.06 kcal/mol
  stoichiometry N: 1.04
[3]
  Kd: 4.6 µM
  dH: -4.35 ± 0.05 kcal/mol
  stoichiometry N: 0.96
14-3-3ζ K49A [4]
  Kd: 3.8 µM
  dH: -4.16 ± 0.05 kcal/mol
  stoichiometry N: 1.01

## B5
[3]
  Kd: 0.36 µM
  dH: -8.03 ± 0.02 kcal/mol
  stoichiometry N: 1.05
14-3-3ζ K49A [4]
  Kd: 1.9 µM
  dH: -7.13 ± 0.03 kcal/mol
  stoichiometry N: 1.07

## B6
14-3-3ζ K49A [5]
  Kd: 5.5 µM
  stoichiometry N: 1.07
14-3-3ζΔC12 [6]
  Kd: 8.5 µM
  stoichiometry N: 1.02
14-3-3ζ
  Kd: 4.9 µM
  stoichiometry N: 0.94

## B7
14-3-3ζ
  Kd: 25 µM
  stoichiometry N: 1.05

## B8
14-3-3ζ K49A [5]
  Kd: 1.8 µM
  stoichiometry N: 0.97
14-3-3ζ
  Kd: 0.38 µM
  stoichiometry N: 1.08

## B9
Chibby 7-mer
  Kd: ~44 µM
Chibby 11-mer
  Kd: ~18 µM
Chibby 13-mer
  Kd: ~15 µM
Chibby 18-mer
  Kd: ~5 µM
Chibby 13-mer S22P
  Kd: ~1 µM
Chibby 18-mer L24A
  Kd: ~21 µM
Chibby 7-mer S22P
  Kd: ~3 µM

## B10
14-3-3ζ
  Kd: 1.3 µM
  stoichiometry N: 1.02

## B11
14-3-3ζΔC12 [6]
  Kd: 14.5 µM
  stoichiometry N: 1.06

## B12
14-3-3ζΔC12 [2]
  Kd: 14.9 µM
  dH: -2.08 ± 0.03 kcal/mol
  stoichiometry N: 0.99

## B13
14-3-3ζ
  Kd: 17.5 µM
  stoichiometry N: 0.96
